# Results taken from US20220144927A1 (SUMITOMO DAINIPPON PHARMA, published 2022).
# Experiments:
# [1] = target: T1, mucin subtype 5AC (human, UniProt P98088 28-5654, limits assumed); experiment: ELISA, plate coated with crude extract antigen solution of SW1990 xenograft tumor, HRP anti-human IgG; reference antibody
# T1 construct: Not a purified recombinant protein; also called MUC5AC; crude extract antigen solution
# Method: (§1) Various antibodies were added to a 96 well plate coated with various antigens, and the plate was left standing for 1 hr at room temperature. The plate was washed, a blocking solution was added, and the mixture was left standing for 30 min at room temperature. The plate was washed, HRP-conjugated anti-human IgG was added, and the mixture was left standing for 1 hr or longer at room temperature. The plate was washed, a color development reagent (Bethyl Laboratories, Inc.) was added, and the degree of color development was measured by a microplate reader (VersaMax, Molecular Devices, LLC.).
# (§2) In Table 2 and Table 3, a tumor mass collected from a cancer-bearing model mouse transplanted with human pancreatic cancer cell line SW1990 was homogenized, and the supernatant (crude extract antigen solution) after centrifugation was used as an antigen. In Table 4, a mucin fraction obtained by isopycnic centrifugation using cesium chloride from the crude extract antigen solution was used as the antigen.
# [2] = target: T1, mucin subtype 5AC; experiment: ELISA, plate coated with crude extract antigen solution of SW1990 xenograft tumor, HRP anti-human IgG
# Method: as §1, §2
# [3] = target: T1, mucin subtype 5AC; experiment: ELISA, plate coated with mucin fraction (CsCl isopycnic centrifugation of SW1990 tumor crude extract), HRP anti-human IgG
# Method: as §1, §2
binder,measurement,setting,value
"antibody 1 (antibody, V domains shown, Humanized antibody of the invention; also called H01L01) VH: EVQLLESGGGLVQPGGSLRLSCAASGFTFSNYGMSWVRQAPGKGLEWVSTISNSGRYTYFPDSVKGRFTISRDNSKNTLYLQMNSLRAEDTALYYCTRHLDYANYDAMDYWGQGTLVTVSS VL: DIVMTQSPSSLSASVGDRVTITCRASKSVTTSDFSYMHWYQQKPGKAPKLLIYLASNLESGVPSRFSGSGSGTDFTLTISSLQPEDFATYYCQHSREFPWTFGGGTKVEIK",in vitro binding activity ratio to antibody 1,[1],1 fold vs antibody 1
"antibody 2 (antibody, V domains shown, Humanized antibody of the invention; also called H01L02) VH: EVQLLESGGGLVQPGGSLRLSCAASGFTFSNYGMSWVRQAPGKGLEWVSTISNSGRYTYFPDSVKGRFTISRDNSKNTLYLQMNSLRAEDTALYYCTRHLDYANYDAMDYWGQGTLVTVSS VL: DVVMTQSPSTLSASVGDRVTITCRASKSVTTSDFSYMHWYQQKPGQAPKLLIYLASNLESGVPSRFSGSGSGTDFTLTISSLQPEDFATYYCQHSREFPWTFGQGTKLEIK",in vitro binding activity ratio to antibody 1,[2],1.03 fold vs antibody 1
"antibody 3 (antibody, V domains shown, Humanized antibody of the invention; also called H01L03) VH: EVQLLESGGGLVQPGGSLRLSCAASGFTFSNYGMSWVRQAPGKGLEWVSTISNSGRYTYFPDSVKGRFTISRDNSKNTLYLQMNSLRAEDTALYYCTRHLDYANYDAMDYWGQGTLVTVSS VL: DIQMTQSPSSLSASVGDRVTITCRASKSVTTSDFSYMHWYQQKPGKSPKLLIYLASNLESGVPSRFSGSGSGTDFSLTISSLQPEDFATYYCQHSREFPWTFGGGTKVEIK",in vitro binding activity ratio to antibody 20,[3],1.56 fold vs antibody 20
same,in vitro binding activity ratio to antibody 1,[2],0.99 fold vs antibody 1
"antibody 5 (antibody, V domains shown, Humanized antibody of the invention; also called H02L01) VH: LVQLVESGGGVVRPGGSLRLSCAASGFTFSNYGMSWIRQAPGKGLEWVSTISNSGRYTYFPDSVKGRFTISRDNAKNSLYLQMNSLRAEDTALYYCTRHLDYANYDAMDYWGQGTLVTVSS VL: DIVMTQSPSSLSASVGDRVTITCRASKSVTTSDFSYMHWYQQKPGKAPKLLIYLASNLESGVPSRFSGSGSGTDFTLTISSLQPEDFATYYCQHSREFPWTFGGGTKVEIK",in vitro binding activity ratio to antibody 1,[2],0.6 fold vs antibody 1
"antibody 6 (antibody, V domains shown, Humanized antibody of the invention; also called H02L02) VH: LVQLVESGGGVVRPGGSLRLSCAASGFTFSNYGMSWIRQAPGKGLEWVSTISNSGRYTYFPDSVKGRFTISRDNAKNSLYLQMNSLRAEDTALYYCTRHLDYANYDAMDYWGQGTLVTVSS VL: DVVMTQSPSTLSASVGDRVTITCRASKSVTTSDFSYMHWYQQKPGQAPKLLIYLASNLESGVPSRFSGSGSGTDFTLTISSLQPEDFATYYCQHSREFPWTFGQGTKLEIK",in vitro binding activity ratio to antibody 1,[2],0.71 fold vs antibody 1
"antibody 7 (antibody, V domains shown, Humanized antibody of the invention; also called H02L03) VH: LVQLVESGGGVVRPGGSLRLSCAASGFTFSNYGMSWIRQAPGKGLEWVSTISNSGRYTYFPDSVKGRFTISRDNAKNSLYLQMNSLRAEDTALYYCTRHLDYANYDAMDYWGQGTLVTVSS VL: DIQMTQSPSSLSASVGDRVTITCRASKSVTTSDFSYMHWYQQKPGKSPKLLIYLASNLESGVPSRFSGSGSGTDFSLTISSLQPEDFATYYCQHSREFPWTFGGGTKVEIK",in vitro binding activity ratio to antibody 1,[2],0.65 fold vs antibody 1
"antibody 9 (antibody, V domains shown, Humanized antibody of the invention; also called H03L01) VH: LVQLVESGGGVVQPGRSLRLSCAASGFTFSNYGMSWVRQAPGKGLEWVATISNSGRYTYFPDSVKGRFTISRDNSKNTLYLQMNSLRAEDTAVYYCTRHLDYANYDAMDYWGQGTLVTVSS VL: DIVMTQSPSSLSASVGDRVTITCRASKSVTTSDFSYMHWYQQKPGKAPKLLIYLASNLESGVPSRFSGSGSGTDFTLTISSLQPEDFATYYCQHSREFPWTFGGGTKVEIK",in vitro binding activity ratio to antibody 9,[1],1 fold vs antibody 9
"antibody 10 (antibody, V domains shown, Humanized antibody of the invention; also called H03L02) VH: LVQLVESGGGVVQPGRSLRLSCAASGFTFSNYGMSWVRQAPGKGLEWVATISNSGRYTYFPDSVKGRFTISRDNSKNTLYLQMNSLRAEDTAVYYCTRHLDYANYDAMDYWGQGTLVTVSS VL: DVVMTQSPSTLSASVGDRVTITCRASKSVTTSDFSYMHWYQQKPGQAPKLLIYLASNLESGVPSRFSGSGSGTDFTLTISSLQPEDFATYYCQHSREFPWTFGQGTKLEIK",in vitro binding activity ratio to antibody 9,[2],0.96 fold vs antibody 9
"antibody 11 (antibody, V domains shown, Humanized antibody of the invention; also called H03L03) VH: LVQLVESGGGVVQPGRSLRLSCAASGFTFSNYGMSWVRQAPGKGLEWVATISNSGRYTYFPDSVKGRFTISRDNSKNTLYLQMNSLRAEDTAVYYCTRHLDYANYDAMDYWGQGTLVTVSS VL: DIQMTQSPSSLSASVGDRVTITCRASKSVTTSDFSYMHWYQQKPGKSPKLLIYLASNLESGVPSRFSGSGSGTDFSLTISSLQPEDFATYYCQHSREFPWTFGGGTKVEIK",in vitro binding activity ratio to antibody 9,[2],1.25 fold vs antibody 9
"antibody 13 (antibody, V domains shown, Humanized antibody of the invention; also called H04L01) VH: EVQLLESGGGLVQPGGSLRLSCAVSGFTFSNYGMSWVRQAPGKGLEWVSTISNSGRYTYFPDSVKGRFTISRDNSRNTLYLQMNTLRAEDTAVYYCTRHLDYANYDAMDYWGQGTPVTVSS VL: DIVMTQSPSSLSASVGDRVTITCRASKSVTTSDFSYMHWYQQKPGKAPKLLIYLASNLESGVPSRFSGSGSGTDFTLTISSLQPEDFATYYCQHSREFPWTFGGGTKVEIK",in vitro binding activity ratio to antibody 9,[2],0.9 fold vs antibody 9
"antibody 14 (antibody, V domains shown, Humanized antibody of the invention; also called H04L02) VH: EVQLLESGGGLVQPGGSLRLSCAVSGFTFSNYGMSWVRQAPGKGLEWVSTISNSGRYTYFPDSVKGRFTISRDNSRNTLYLQMNTLRAEDTAVYYCTRHLDYANYDAMDYWGQGTPVTVSS VL: DVVMTQSPSTLSASVGDRVTITCRASKSVTTSDFSYMHWYQQKPGQAPKLLIYLASNLESGVPSRFSGSGSGTDFTLTISSLQPEDFATYYCQHSREFPWTFGQGTKLEIK",in vitro binding activity ratio to antibody 9,[2],1.04 fold vs antibody 9
"antibody 15 (antibody, V domains shown, Humanized antibody of the invention; also called H04L03) VH: EVQLLESGGGLVQPGGSLRLSCAVSGFTFSNYGMSWVRQAPGKGLEWVSTISNSGRYTYFPDSVKGRFTISRDNSRNTLYLQMNTLRAEDTAVYYCTRHLDYANYDAMDYWGQGTPVTVSS VL: DIQMTQSPSSLSASVGDRVTITCRASKSVTTSDFSYMHWYQQKPGKSPKLLIYLASNLESGVPSRFSGSGSGTDFSLTISSLQPEDFATYYCQHSREFPWTFGGGTKVEIK",in vitro binding activity ratio to antibody 9,[2],1.36 fold vs antibody 9
"antibody 17 (antibody, V domains shown, also called H05L05) VH: EVQLLESGGGLVQPGGSLRLSCAASGFTFSNYGMSWVRQAPGKGLEWVSTISNSGRYTYFPDSVKGRFTISRDNSKNTLYLQMNSLRAEDTAVYYCAKHLDYANYDAMDYWGQGTLVTVSS VL: DIQMTQSPSSLAVSLGDRVTITCRASKSVTTSDFSYMHWYQQKPGLAPKLLIYLASNLESGVPSRFSGSGSGTDFTFTISSLQPEDIATYYCQHSREFPWTFGQGTKVEVK",in vitro binding activity ratio to antibody 20,[3],0.75 fold vs antibody 20
"antibody 4 (antibody, V domains shown, Humanized antibody of the invention; also called H01L04) VH: EVQLLESGGGLVQPGGSLRLSCAASGFTFSNYGMSWVRQAPGKGLEWVSTISNSGRYTYFPDSVKGRFTISRDNSKNTLYLQMNSLRAEDTALYYCTRHLDYANYDAMDYWGQGTLVTVSS VL: DIVMTQSPDSLAVSLGERATINCKASKSVTTSDFSYLHWYQQKPGQPPKLLIYLASNLESGVPDRFSGSGSGTDFTLTISSLQAEDVAVYYCQHSREFPWTFGGGTKLEIK",in vitro binding activity ratio to antibody 20,[3],0.97 fold vs antibody 20
same,in vitro binding activity ratio to antibody 1,[2],0.99 fold vs antibody 1
"antibody 8 (antibody, V domains shown, Humanized antibody of the invention; also called H02L04) VH: LVQLVESGGGVVRPGGSLRLSCAASGFTFSNYGMSWIRQAPGKGLEWVSTISNSGRYTYFPDSVKGRFTISRDNAKNSLYLQMNSLRAEDTALYYCTRHLDYANYDAMDYWGQGTLVTVSS VL: DIVMTQSPDSLAVSLGERATINCKASKSVTTSDFSYLHWYQQKPGQPPKLLIYLASNLESGVPDRFSGSGSGTDFTLTISSLQAEDVAVYYCQHSREFPWTFGGGTKLEIK",in vitro binding activity ratio to antibody 20,[3],0.7 fold vs antibody 20
same,in vitro binding activity ratio to antibody 1,[2],0.72 fold vs antibody 1
"antibody 12 (antibody, V domains shown, Humanized antibody of the invention; also called H03L04) VH: LVQLVESGGGVVQPGRSLRLSCAASGFTFSNYGMSWVRQAPGKGLEWVATISNSGRYTYFPDSVKGRFTISRDNSKNTLYLQMNSLRAEDTAVYYCTRHLDYANYDAMDYWGQGTLVTVSS VL: DIVMTQSPDSLAVSLGERATINCKASKSVTTSDFSYLHWYQQKPGQPPKLLIYLASNLESGVPDRFSGSGSGTDFTLTISSLQAEDVAVYYCQHSREFPWTFGGGTKLEIK",in vitro binding activity ratio to antibody 9,[2],0.91 fold vs antibody 9
"antibody 16 (antibody, V domains shown, Humanized antibody of the invention; also called H04L04) VH: EVQLLESGGGLVQPGGSLRLSCAVSGFTFSNYGMSWVRQAPGKGLEWVSTISNSGRYTYFPDSVKGRFTISRDNSRNTLYLQMNTLRAEDTAVYYCTRHLDYANYDAMDYWGQGTPVTVSS VL: DIVMTQSPDSLAVSLGERATINCKASKSVTTSDFSYLHWYQQKPGQPPKLLIYLASNLESGVPDRFSGSGSGTDFTLTISSLQAEDVAVYYCQHSREFPWTFGGGTKLEIK",in vitro binding activity ratio to antibody 20,[3],1.09 fold vs antibody 20
same,in vitro binding activity ratio to antibody 9,[2],0.88 fold vs antibody 9
"antibody 18 (antibody, V domains shown, also called H06L06) VH: EVQLVESGGGLVKPGGSLRLSCAASGFTFSNYGMSWVRQAPGKGLEWVSTISNSGRYTYFPDSVKGRFTISRDNAKNSLYLQMNSLRAEDTAVYYCARHLDYANYDAMDYWGQGTLVTVSS VL: DIVMTQTPLSSPVTLGQPASISCRASKSVTTSDFSYMHWLQQRPGQPPRLLIYLASNLESGVPDRFSGSGAGTDFTLKISRVEAEDVGVYYCQHSREFPWTFGQGTKVEIK",in vitro binding activity ratio to antibody 20,[3],0.13 fold vs antibody 20
"antibody 19 (antibody, V domains shown, also called H05L07) VH: EVQLLESGGGLVQPGGSLRLSCAASGFTFSNYGMSWVRQAPGKGLEWVSTISNSGRYTYFPDSVKGRFTISRDNSKNTLYLQMNSLRAEDTAVYYCAKHLDYANYDAMDYWGQGTLVTVSS VL: DIVMTQTPLSLSVTPGQPASISCRASKSVTTSDFSYMHWYLQKPGQPPQLLIYLASNLESGVPDRFSGSGSGTDFTLKISRVEAEDVGVYYCQHSREFPWTFGQGTKVEIK",in vitro binding activity ratio to antibody 20,[3],0.49 fold vs antibody 20
